Values joined by “and” are separate entries in the source; they are usually repeats but may differ in a detail not shown here. Equal entries are not always repeated.
Legend:
[1] = target: Rabbit anti-mouse IgG-AP conjugate (Sigma Cat. No. A3688) (rabbit); experiment: control without mouse IgG: conjugate only (1/5000) on OMP18, hydrophilic plate
[2] = target: Rabbit anti-mouse IgG-AP conjugate (Sigma Cat. No. A3688) (rabbit); experiment: control without mouse IgG: conjugate only (1/5000) on OMP18, hydrophobic plate
[3] = target: Mouse IgG (Sigma Cat No. 15381) (mouse); experiment: immunoassay, OMP18 adsorbed on hydrophilic plate, mouse IgG 2 ug/mL, anti-mouse IgG-AP and PNPP; well 1
[4] = target: Mouse IgG (Sigma Cat No. 15381) (mouse); experiment: immunoassay, OMP18 adsorbed on hydrophilic plate, mouse IgG 2 ug/mL, anti-mouse IgG-AP and PNPP; well 2
[5] = target: Mouse IgG (Sigma Cat No. 15381) (mouse); experiment: immunoassay, OMP18 adsorbed on hydrophobic plate, mouse IgG 2 ug/mL, anti-mouse IgG-AP and PNPP; well 1
[6] = target: Mouse IgG (Sigma Cat No. 15381) (mouse); experiment: immunoassay, OMP18 adsorbed on hydrophobic plate, mouse IgG 2 ug/mL, anti-mouse IgG-AP and PNPP; well 2
OMP0 (E. coli) = OMP0 (E. coli) (UniProt P0A910); experiment: M2 anti-FLAG-AP 1:1000 and PNPP on OMP0 treated PLA disc

| Substance | A405 [1] [A405] | A405 [2] [A405] | A405 [3] [A405] | A405 [4] [A405] | A405 [5] [A405] | A405 [6] [A405] | Absorbance at 405 nm (OMP0 (E. coli)) |
| --- | --- | --- | --- | --- | --- | --- | --- |
| OMP18 (from UniProt P38507 212-269; P38507 212-269) | 0.027 | 0.056 | 2.24 | 2.23 | 2.39 | 2.33 | – |
| M2 anti-FLAG alkaline phosphatase conjugated antibody (Sigma Cat No. A9469) | – | – | – | – | – | – | 0.312 A405 and 0.361 A405 and 0.374 A405 |

Source: patent US10435480
